The values below come from patent US20230120018A1, “PREDICTION OF PEPTIDE CLEAVAGE IN POLYPEPTIDES THROUGH PHYSICS-BASED SIMULATIONS” (Genentech, Inc., priority 2020, published 2023).

The chains are these.
B1: otlertuzumab (antibody, chains of the INN, looked up, V domains shown)
VH: EVQLVQSGAEVKKPGESLKISCKGSGYSFTGYNMNWVRQMPGKGLEWMGNIDPYYGGTTYNRKFKGQVTISADKSISTAYLQWSSLKASDTAMYYCARSVGPFDSWGQGTLVTVSS
VL: EIVLTQSPATLSLSPGERATLSCRASENVYSYLAWYQQKPGQAPRLLIYFAKTLAEGIPARFSGSGSGTDFTLTISSLEPEDFAVYYCQHHSDNPWTFGQGTKVEIK

The nature of the first data set: Asn-Pro hydrolysis in unstructured linear peptide mimics of CDR-L3 at accelerated temperature. The format is physicochemical. The following applies: pH 7.4, 90° C. Here is the method:
To examine the effect of antibody structure on the rate of Asn-Pro hydrolysis, thermal stress was performed on unstructured, linear peptides representing the CDR-L3 sequence of Fab1 and Mab3. Since it had been previously shown that the rate of hydrolysis in unstructured peptides incubated at 37° C. was slow, accelerated temperature conditions (90 and 70° C.) were performed and the temperature dependence extrapolated to calculate the rate at 37° C. Very slow rates of peptide hydrolysis (Table 2), with half-lives calculated for 37° C. of greater than 2000 days, were observed. As expected, the rate of hydrolysis was slower, by about 3-fold, for incubations performed in pH 5 buffer.
“Fab1: peptide mimic of Fab1 CDR-L3 segment, QQWSSNPWTFGQ”: the “% Pro peak formation/day at 90° C.” value amounted to 1.0 % Pro peak formation/day.
As for “Fab2: peptide mimic of Fab2 CDR-L3 segment, QQGYGNPFTFGQ”, the “% Pro peak formation/day at 90° C.” value is 2.9 % Pro peak formation/day.
Take “Mab3: peptide mimic of Mab3 CDR-L3 segment, QQWSSNPYTFGQ”: the “% Pro peak formation/day at 90° C.” value is given as 2.9 % Pro peak formation/day.
As to “Mab4: peptide mimic of Mab4 CDR-L3 segment, QQGINNPLTFGQ”, the “% Pro peak formation/day at 90° C.” value was 1.9 % Pro peak formation/day.

The nature of a further data set: Neutral pH 37 C stability of commercial antibodies, fragmentation by mass spectroscopy and CE-SDS. The format is physicochemical. The following applies: PBS pH 7.4, up to 4 weeks at 37° C. Here is the method: In addition to the data shown for Mab5 in Table 1 and FIG. 9, neutral pH, 37 C stability data was generated for all except muromonab, teplizumab, tovetumab, and visilizumab. Antibodies formulated in PBS, pH 7.4, were incubated for up to 4 weeks at 37° C. and evidence for fragmentation was obtained by mass spectroscopy and capillary electrophoresis sodium dodecyl sulfate (CE-SDS) for both intact and reduced samples.
In the case of veltuzumab [reference compound], the “Light chain fragment observed? (hydrolysis at Asn-Pro in CDR-L3)” value was “detected and Yes”.
With B1, the “Light chain fragment observed? (hydrolysis at Asn-Pro in CDR-L3)” value was “not and No”.
